Molecular target: Tim50^IMS (purified, recombinant) (S. cerevisiae) (UniProt Q02776)
Assay: cross-linking

Sequence of UniProt Q02776 (Q02776 133-476): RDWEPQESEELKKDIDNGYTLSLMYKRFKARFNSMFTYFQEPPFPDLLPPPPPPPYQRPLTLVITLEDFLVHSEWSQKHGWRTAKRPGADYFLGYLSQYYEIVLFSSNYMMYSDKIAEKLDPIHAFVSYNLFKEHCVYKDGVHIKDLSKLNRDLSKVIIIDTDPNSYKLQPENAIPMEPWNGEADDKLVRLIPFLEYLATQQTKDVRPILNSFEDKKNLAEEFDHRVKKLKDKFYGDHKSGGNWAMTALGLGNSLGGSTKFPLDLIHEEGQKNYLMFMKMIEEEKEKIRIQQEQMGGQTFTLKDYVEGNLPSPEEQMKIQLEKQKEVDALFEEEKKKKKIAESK

[35S]Tim23(F114C) (from UniProt P32897 1-222) (natural protein)
fold cross-linking with TOCL over without TOCL: 6 fold
